{
  "source": "paper PMC6277972",
  "molecular_target": "P74-26 gp87 (Head Decoration Protein gp87 from Thermus phage P74-26) (Thermus bacteriophage P74-26)",
  "assay": "SEC-MALS",
  "data": [
    {"substance": "P74-26 gp87 (Head Decoration Protein gp87 from Thermus phage P74-26) (natural protein)", "values": [
      {"measurement": "stoichiometry N", "result": 3}
    ]}
  ]
}
